Molecular target: T1, WNV E protein on virions of WNV New York strain (lineage I) (West Nile virus (New York strain), UniProt Q9Q6P4 291-791)
T1 sequence (looked up): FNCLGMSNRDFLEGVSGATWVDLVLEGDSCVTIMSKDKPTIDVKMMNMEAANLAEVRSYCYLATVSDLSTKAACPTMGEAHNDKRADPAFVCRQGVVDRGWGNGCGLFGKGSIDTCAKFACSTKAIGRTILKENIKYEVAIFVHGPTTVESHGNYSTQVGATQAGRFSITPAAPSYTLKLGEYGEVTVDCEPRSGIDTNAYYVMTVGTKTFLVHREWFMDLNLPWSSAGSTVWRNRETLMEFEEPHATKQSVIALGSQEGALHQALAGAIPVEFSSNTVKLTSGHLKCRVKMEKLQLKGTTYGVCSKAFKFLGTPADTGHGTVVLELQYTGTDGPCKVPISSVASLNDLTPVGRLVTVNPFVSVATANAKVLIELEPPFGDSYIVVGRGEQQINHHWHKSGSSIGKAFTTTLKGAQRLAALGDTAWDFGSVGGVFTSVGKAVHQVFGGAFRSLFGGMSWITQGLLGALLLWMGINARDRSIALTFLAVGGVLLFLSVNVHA
Assay: cell-based or functional assay

B1: WNV E16 (monoclonal antibody produced by hybridoma clone E16 C4 E4, ATCC PTA-6050) (antibody, V domains shown)
VH: QVQLQQSGSELMKPGASVQISCKATGYTFSDYWIEWVKQRPGHGLEWIGDILCGTGRTRYNEKLKAMATFTADTSSNTAFMQLSSLTSEDSAVYYCARSASYGDYADYWGHGTTLTVSS
VL: DIVMTQSHKFMSTSVGDRVSITCKASQDVSTAVAWYQQKPGQSPKLLISWASTRHTGVPDRFTGSGSGTDYTLTISSVQAEDLALYYCQQHYTTPLTFGAGTKLELK
- PRNT assay, potency against human γ-globulin preparation: ~1000 fold
